Columns and labels:
Assay in all cases: filter
[1] = molecular target: T1, myeloperoxidase (MPO) (Homo sapiens) (UniProt P05164); conditions: 100 nM MPO; 2.66 at 50 nM; 1.49 without protein
T1 sequence: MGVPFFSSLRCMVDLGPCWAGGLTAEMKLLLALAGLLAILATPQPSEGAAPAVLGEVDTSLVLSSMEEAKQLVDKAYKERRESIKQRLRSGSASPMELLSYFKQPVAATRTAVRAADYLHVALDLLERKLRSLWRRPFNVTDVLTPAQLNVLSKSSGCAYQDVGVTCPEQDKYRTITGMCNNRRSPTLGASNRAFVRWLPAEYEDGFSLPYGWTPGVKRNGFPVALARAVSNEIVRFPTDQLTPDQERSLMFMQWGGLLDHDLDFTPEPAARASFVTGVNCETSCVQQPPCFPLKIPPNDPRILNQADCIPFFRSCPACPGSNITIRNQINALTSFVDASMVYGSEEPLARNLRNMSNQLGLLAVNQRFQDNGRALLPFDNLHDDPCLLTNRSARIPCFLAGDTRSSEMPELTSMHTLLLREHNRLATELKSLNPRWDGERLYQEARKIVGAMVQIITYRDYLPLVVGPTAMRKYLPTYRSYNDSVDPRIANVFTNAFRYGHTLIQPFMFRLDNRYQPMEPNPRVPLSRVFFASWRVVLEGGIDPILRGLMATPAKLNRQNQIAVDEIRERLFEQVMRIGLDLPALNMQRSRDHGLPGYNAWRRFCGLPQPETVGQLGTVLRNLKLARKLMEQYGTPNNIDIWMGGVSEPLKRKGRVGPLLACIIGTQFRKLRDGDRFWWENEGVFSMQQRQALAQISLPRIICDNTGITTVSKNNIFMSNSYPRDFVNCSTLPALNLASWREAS

[2] = molecular target: bovine serum albumin (BSA) (Bos taurus) (UniProt P02769); conditions: 100 nM BSA
[3] = molecular target: ΔNS3 protein (NS3 protease domain) (Hepatitis C virus) (UniProt P26662); conditions: 100 nM protein; 4.9 at 50 nM; 0.1 without protein; Tris pH 7.8, Mg2+, Ca2+

Sequence of bovine serum albumin (BSA) (Bos taurus) (P02769 25-607): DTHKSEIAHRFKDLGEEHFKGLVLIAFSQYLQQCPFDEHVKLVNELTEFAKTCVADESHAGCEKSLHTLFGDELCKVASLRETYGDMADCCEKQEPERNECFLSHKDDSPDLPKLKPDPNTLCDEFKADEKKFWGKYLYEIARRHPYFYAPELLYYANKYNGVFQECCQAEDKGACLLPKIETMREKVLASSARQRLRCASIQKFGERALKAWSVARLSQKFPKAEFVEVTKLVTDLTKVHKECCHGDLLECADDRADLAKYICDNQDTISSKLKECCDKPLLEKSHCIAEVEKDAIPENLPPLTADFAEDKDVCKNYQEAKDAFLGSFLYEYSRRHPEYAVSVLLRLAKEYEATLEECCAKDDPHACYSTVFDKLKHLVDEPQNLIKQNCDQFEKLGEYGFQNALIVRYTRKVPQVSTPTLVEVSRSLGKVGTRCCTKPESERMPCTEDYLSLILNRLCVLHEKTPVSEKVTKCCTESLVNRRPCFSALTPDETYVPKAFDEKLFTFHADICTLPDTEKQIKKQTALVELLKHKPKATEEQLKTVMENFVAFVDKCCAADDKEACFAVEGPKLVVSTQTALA

Sequence | binding signal [1] [% bound] | binding signal [2] [% bound] | binding signal [3] [% bound]
GGUAGAUACGAUGGANNNNNNNNNNNNNNNNNNNNNNNNNNNNNNCAUGACGCGCAGCCA [RNA pool 2] | 1.7 | 1.86 | 
GGGAGGUGGAACUGAAGGAGANNNNNNNNNNNNNNNNNNNNNNNNNNNNNNNNNNNNNNNNNNNNNNNNNNNNNNNACUUCGCAAUCGCUCUACGCA [RNA pool (generation zero)] |  |  | 8.1
